{"source": "the RNAGym collection of RNA variant scans (doi:10.1073/pnas.2313332121)", "parents": {"B1": {"name": "TPR t1 (parent)", "chain": "GACCAAUCUGCCCUCAGAGCUCGAGAACAUCUUCGGAUGCAGAGGAGGCAGGCUUCGGUGGCGCGAUAGCGCCAACGUCCUCAACCUCCAAUGCAUCCCACCACAUGAUGAUGCCUGAAGAGCCUUGGUUUUUUG"}}}
{"variants_of": "B1", "assay": "polymerase ribozyme fitness, log enrichment relative to wild type (log ratio); higher = more active; in vitro selection for triplet polymerase activity", "summary_of_the_method": "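Fitness compares each genotype's enrichment to that of the wild type on a logarithmic scale, averaging replicates with inverse-variance weights. The logarithm is base 2. Enrichment came from Illumina sequencing of input and output libraries after one triplicate round of in vitro selection, which included frozen incubation at −7 °C, of PCR-built, transcribed mutant libraries of each subunit of a heterodimeric triplet polymerase ribozyme. Only genotypes with ≥10 input reads and ≥1 read per output were kept.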"}
{"variant": "GACCAAUCUGCCCUCAGAGCUCGAGAACAUCUUCGGAUGCAGAGGAGGCAGGCUUCGCUGGCGCGAUAGCGCCAAUGUCCUCAACCUCCAAUGCAUCCCACCAAAUGAUGAUUCCUGACGAGCCUUGGUUUUUUG", "polymerase ribozyme fitness (log ratio)": -6.29}
{"variant": "GACCAAUCUGCCCUCAGAGCUCGAGAACAUCUUCGGAUGCAGAGGAGGCAGGCUUCGGAGGCGCGAUAGCGACAACGUCCUCAACCUCCAAUGCAUCCCACCACAUGAAGAUGCCUGAAGAGCCUUGGUUUUUUG", "polymerase ribozyme fitness (log ratio)": -7.12}
{"variant": "GACCAAUCUGCCCUCAGAGCUCGAGAACAUCUUCGGAUGCAGAGGAGGCAGGCUUCGUUGGCGCGAUAUCGCCAACGUCCUCAACCUCCAAUGCAUACCACCACAUGAUGAUGCCUGAACAGCCUUGGUUUUUUG", "polymerase ribozyme fitness (log ratio)": -1.35}
{"variant": "GACCAAUCUGCCCUCAGAGCUCGAGAACAUCUUCGGAUGCAGAGGAGGCAGGCUUCGGAGGCGCGAUAGCGCCAACGUCCUCAAACUCCAAUGAAUCCCACCACAUGAUGAUGCCUGAAAAGCCUUGGUUUUUUG", "polymerase ribozyme fitness (log ratio)": -0.6}
{"variant": "GACCAAUCUGCCCUCAGAGCUCGAGAACAUCUUCGGAUGCAGAGGAGGCAGGCUUCGGAGGCGCGAUAGCGCCAACGUCCUCAACCUCCAAUGCAUCCCACCACAUGAUGAUGCCUGAAGAGGCUUGGUUUUUUG", "polymerase ribozyme fitness (log ratio)": 2}
{"variant": "GACCAAUCUGCCCUCAGAGCUCGAGAACAUCUUCGGAUGCAGAGGAGGCAGGCUUCGGAGGCGCGAUAGUGCCAACGUCCUCAACCUCCAAUGCAUCCCACCACAUGAUGAUGCCUGAAGAGCCUUGGUUUUUUG", "polymerase ribozyme fitness (log ratio)": -0.265}
{"variant": "GACCAAUCUGCCCUCAGAGCUCGAGAACAUCUUCGGAUGCAGAGGAGGCAGGCUUCGGCGGCGCGAUAGCGCCAACGUCCUCAACCUCCAAUGCAUCCCACCUCAUGAUGACGCCUGAAGAGCCUUGUUUUAAUG", "polymerase ribozyme fitness (log ratio)": -5.05}
{"variant": "GACCAAUCUGCCCUCAGAGCUCGAGAACAUCUUCGGAUGCAGAGGAGGCAGGCUUCGCUGGCGCGAUAGUGCCAACGUCCUCAACCUCCAAUGCAUCCCACCACAUGAUCAUGCCUGAAGUGCCUUGGUUUUUUG", "polymerase ribozyme fitness (log ratio)": -5.63}
{"variant": "GACCAAUCUGCCCUCAGAGCUCGAGAACAUCUUCGGAUGCAGAGGAGGCAGGCUUCGGAGUCGCGAUAGCGCCAACGUCCUCAUCCUCCAAUGCAUCCCACCACAUGAUGAUGCCUGAAGAGCCUUGGUUUUUUG", "polymerase ribozyme fitness (log ratio)": -0.153}
{"variant": "GACCAAUCUGCCCUCAGAGCUCGAGAACAUCUUCGGAUGCAGAGGAGGCAGGCUUCGUUGGCGCGAUAGCGCCAACGUCCUCAACCUCCAAUGCAUCCCACCACAUGAUGAUGCCUGAGGAGCCUUGGUUUUUUG", "polymerase ribozyme fitness (log ratio)": 0.849}
{"variant": "GACCAAUCUGCCCUCAGAGCUCGAGAACAUCUUCGGAUGCAGAGGAGGCAGGCUUCGGAGGCGCGAUAGCGCCAACGUCCUCAACCUCCAAUGCAUCCCACCACAUGAUGAUGCCUAAAGAGCCUUGGUUUUUUG", "polymerase ribozyme fitness (log ratio)": -1.36}
{"variant": "GACCAAUCUGCCCUCAGAGCUCGAGAACAUCUUCGGAUGCAGAGGAGGCAGGCUUCGCUGGCGCGAUAGCGCCAACGUCCUCAACCUCCAAUGCAUCCCACCACAUGAUGAUGCCUGAAGAGCCUCGGUUUUUUG", "polymerase ribozyme fitness (log ratio)": -1.22}
{"variant": "GACCAAUCUGCCCUCAGAGCUCGAGAACAUCUUCGGAUGCAGAGGAGGCAGGCUUCGGAGGCGCGAUAGCGCCAACAUCCUCCACCUCCAAAGCAUCCCACUACAUGACGAUGUCUGAAGAGCCUUGGUUUUUUG", "polymerase ribozyme fitness (log ratio)": -6.72}
{"variant": "GACCAAUCUGCCCUCAGAGCUCGAGAACAUCUUCGGAUGCAGAGGAGGCAGGCUUCGCUGGCGCGAUAGCGCCAACGUCCUCAACCUCCAAUGCAAACCACCAAAUGAUGAUGCCUGAAUAGCCUUGCUUUUUUG", "polymerase ribozyme fitness (log ratio)": -7.29}
{"variant": "GACCAAUCUGCCCUCAGAGCUCGAGAACAUCUUCGGAUGCAGAGGAGGCAGGCUUCGCUGGCGCGAUAGCGCAAACGUCCUCAACCUCCAAUGCAUCGCACCACAUGAUGAUGCCUGAAGAGCCUUGGUUUUUUG", "polymerase ribozyme fitness (log ratio)": -6.44}
{"variant": "GACCAAUCUGCCCUCAGAGCUCGAGAACAUCUUCGGAUGCAGAGGAGGCAGGCUUCGGAGGCGCGAUAGCGCCAACGUCCUCAACCUGCAAUGCAUCCCACCACAUGAUGAUGCCUGAAGAGCCUUGGUUUUUUG", "polymerase ribozyme fitness (log ratio)": -1.44}
{"variant": "GACCAAUCUGCCCUCAGAGCUCGAGAACAUCUUCGGAUGCAGAGGAGGCAGGCUUCGCUGGCGCGAUAGUGCCAACGUCCUCAACCUCCAAUGCAUCCCACCACAUGAUGAUGCCUGAAGAGCCUUGGUUUUUUG", "polymerase ribozyme fitness (log ratio)": -0.846}
{"variant": "GACCAAUCUGCCCUCAGAGCUCGAGAACAUCUUCGGAUGCAGAGGAGGCAGGCUUCGGAGGCGCGAUAGCGCCAACGUCCUCAACCACCAAUGCAUCCCACCACAUGAUGAUGCCUGAAGAGCCUUGGUUUUUUG", "polymerase ribozyme fitness (log ratio)": -0.298}
{"variant": "GACCAAUCUGCCCUCAGAGCUCGAGAACAUCUUCGGAUGCAGAGGAGGCAGGCUUCGGAGGCGCGAUAGCGCCAACGUCCUCAACCGCCAAUGCAUCCCACCACAUGAUGAUGCCUGAAGAGCCUUGGUUUUUUG", "polymerase ribozyme fitness (log ratio)": -0.319}
{"variant": "GACCAAUCUGCCCUCAGAGCUCGAGAACAUCUUCGGAUGCAGAGGAGGCAGGCUUCGGAGGCGCGAUAGCGCCAACGUCCUCAACCUCCAAUGCAUCCCAACACAUGAUGAUGACUGAAGAGCCUUGGUUUUUUG", "polymerase ribozyme fitness (log ratio)": -2.95}
{"variant": "GACCAAUCUGCCCUCAGAGCUCGAGAACAUCUUCGGAUGCAGAGGAGGCAGGCUUCGGAGGCGCGAUAGCGCCAACGUCCUCAACCUCCAAUGCUUCCCACCACAUGAUGAUGCCUGAAGAGCCUUGAUUUUUUG", "polymerase ribozyme fitness (log ratio)": -2.84}
